Measurements taken from the supplement of paper PMC6755084.

B1: F1*; the commonest letter at each place (parent)
chain: GAGACCGCAACTGAAAAGTTGTTATCACTTGTCGTAAGACACTTTGGATGGGTTGAAGTTCTGCACGTAGAAGCAAAAGGC

Variants of: B1
Assay: fraction ligated after 30 min (ligated reads / total reads); higher = more ligase activity
Details: with F1*sub RNA substrate (template-directed ligation), 42 °C
Method in brief: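 Oligo-pool templates underwent PCR amplification, T7 transcription and gel purification to yield ribozyme variants. Gel-separated ligated and unligated bands were converted to complementary DNA with barcoded primers and sequenced on a MiSeq, keeping core bases of quality ≥20. The ratio of ligated reads to total reads gave the fraction ligated for every variant.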

| Variant | fraction ligated |
| --- | --- |
| T30G T32G A39C A41C | 0.845 |
| T30G T43A | 0.859 |
| T30G T43G | 0.795 |
| T30G T43C | 0.794 |
| G31A A37G | 0.827 |
| G31A A37C | 0.813 |
| G31A A37T | 0.826 |
| G31A A56G | 0.687 |
| G31A A56T | 0.724 |
| G31A A56C | 0.161 |
| T30C A37C | 0.794 |
| T30C A37T | 0.805 |
| T30C A37G | 0.83 |
| T30G C40T | 0.819 |
| T30G C40A | 0.854 |
| T30G C40G | 0.81 |
| T30A C40G | 0.803 |
| T30A C40T | 0.825 |
| T30A C40A | 0.845 |
| G31A A48T | 0.01 |
| G31A A48C | 0.322 |
| G31A A48G | 0.254 |
| T30G A39G | 0.841 |
| T30G A39T | 0.779 |

| Variant | fraction ligated |
| --- | --- |
| T30G A39C | 0.786 |
| T29G A56C | 0.787 |
| T29G A56G | 0.749 |
| T29G A56T | 0.793 |
| T30G T32C A39G A41C | 0.803 |
| T30G A36G | 0.872 |
| T30G A36C | 0.833 |
| T30G A36T | 0.841 |
| T29C T45A | 0.554 |
| T29C T45C | 0.471 |
| T29C T45G | 0.239 |
| T30C A48G | 0.329 |
| T30C A48T | 0.346 |
| T30C A48C | 0.757 |
| T30G T44A | 0.831 |
| T30G T44G | 0.798 |
| T30G T44C | 0.808 |
| T30G G50A | 0.513 |
| T30G G50C | 0.342 |
| T30G G50T | 0.712 |
| T30A | 0.855 |
| T30C | 0.807 |
| T30G | 0.843 |
| T30G T32G C33G G38C A39C A41C | 0.862 |

| Variant | fraction ligated |
| --- | --- |
| T30G T45G | 0.46 |
| T30G T45A | 0.76 |
| T30G T45C | 0.803 |
| T29G A39C | 0.822 |
| T29G A39G | 0.819 |
| T29G A39T | 0.822 |
| T30A T45A | 0.604 |
| T30A T45G | 0.211 |
| T30A T45C | 0.746 |
| T30C G31C T32G C33G G38C A39C C40G A41G | 0.839 |
| T29G G55T | 0.792 |
| T29G G55C | 0.584 |
| T29G G55A | 0.79 |
| T30G G55A | 0.846 |
| T30G G55T | 0.819 |
| T30G G55C | 0.793 |
| T29G G34A | 0.824 |
| T29G G34C | 0.808 |
| T29G G34T | 0.83 |
| T30C G31C T32G A39C C40G A41G | 0.862 |
| T30C T32C A39G A41G | 0.816 |
| T29G T30G | 0.844 |
| T29G T30C | 0.828 |
| T29G T30A | 0.823 |

| Variant | fraction ligated |
| --- | --- |
| T30C T43A | 0.809 |
| T30C T43C | 0.788 |
| T30C T43G | 0.768 |
| T29G A36T | 0.826 |
| T29G A36C | 0.825 |
| T29G A36G | 0.823 |
| T30A T35G | 0.827 |
| T30A T35C | 0.816 |
| T30A T35A | 0.839 |
| T30C T45G | 0.174 |
| T30C T45C | 0.475 |
| T30C T45A | 0.668 |
| T29G A48G | 0.805 |
| T29G A48T | 0.773 |
| T29G A48C | 0.756 |
| T30C G50T | 0.452 |
| T30C G50C | 0.107 |
| T30C G50A | 0.175 |
| T30C G55C | 0.504 |
| T30C G55A | 0.81 |
| T30C G55T | 0.757 |
| G31A C33A | 0.833 |
| G31A C33G | 0.824 |
| G31A C33T | 0.829 |

| Variant | fraction ligated |
| --- | --- |
| T30C A41C | 0.752 |
| T30C A41T | 0.805 |
| T30C A41G | 0.828 |
| T30A A39C | 0.777 |
| T30A A39T | 0.81 |
| T30A A39G | 0.805 |
| T29G G47C | 0.696 |
| T29G G47T | 0.738 |
| T29G G47A | 0.816 |
| T30G G31C T32G A39C C40G A41C | 0.85 |
| T30G A37C | 0.849 |
| T30G A37T | 0.86 |
| T30G A37G | 0.852 |
| T29G T45A | 0.673 |
| T29G T45G | 0.267 |
| T29G T45C | 0.677 |
| T30G C42A | 0.831 |
| T30G C42T | 0.817 |
| T30G C42G | 0.834 |
| T30C G47T | 0.358 |
| T30C G47C | 0.0928 |
| T30C G47A | 0.798 |
| T30C A39C | 0.765 |
| T30C A39T | 0.764 |

| Variant | fraction ligated |
| --- | --- |
| T30C A39G | 0.782 |
| T30G T35A | 0.845 |
| T30G T35C | 0.813 |
| T30G T35G | 0.847 |
| G31A C40T | 0.831 |
| G31A C40A | 0.839 |
| G31A C40G | 0.85 |
| T29G T49G | 0.77 |
| T29G T49C | 0.733 |
| T29G T49A | 0.753 |
| T30G G47C | 0.0588 |
| T30G G47A | 0.654 |
| T30G G47T | 0.15 |
| T30C G31C T32C C33G G38C A39G C40G A41G | 0.892 |
| T30C A56C | 0.763 |
| T30C A56G | 0.764 |
| T30C A56T | 0.749 |
| T30A G34C | 0.781 |
| T30A G34A | 0.833 |
| T30A G34T | 0.802 |
| T29G | 0.829 |
| G31A A36G | 0.595 |
| G31A A36T | 0.827 |
| G31A A36C | 0.8 |

| Variant | fraction ligated |
| --- | --- |
| T30A A48C | 0.741 |
| T30A A48G | 0.806 |
| T30A A48T | 0.671 |
| T30C T49A | 0.575 |
| T30C T49G | 0.485 |
| T30C T49C | 0.0166 |
| T30G A57T | 0.828 |
| T30G A57C | 0.806 |
| T30G A57G | 0.787 |
| T30A G38T | 0.832 |
| T30A G38A | 0.813 |
| T30A G38C | 0.795 |
| T30C T32C | 0.726 |
| T30C T32G | 0.809 |
| T30C T32A | 0.817 |
| T30G T49G | 0.808 |
| T30G T49A | 0.739 |
| T30G T49C | 0.526 |
| T30G T32G | 0.865 |
| T30G T32A | 0.883 |
| T30G T32C | 0.784 |
| T30A G31C | 0.784 |
| T30A G31A | 0.842 |
